Assay results: patent publication US20080089862

Tested on: engineered beta-galactosidase reporter protein with the NS3-cleavable NS5A/B site between residues 2

| Substance | β-galactosidase units (ONPG hydrolysis, Miller units), pEB13-lacZ-NS5A/B + pMALc-NN-scNS3 | β-galactosidase units (ONPG hydrolysis, Miller units), pMGT14 | β-galactosidase units (ONPG hydrolysis, Miller units), pMGT15 |
| --- | --- | --- | --- |
| MBP-scNS3 (E. coli maltose binding protein fused to the NS4A peptide followed by the NS3 protease domain) | 20 Miller units | 60 Miller units |  |
| MBP-scNS3mut (inactive mutant S-1165-A NS3) |  |  | 160 Miller units |
